“And” between values parts separate entries of the source, which are not always exact repeats. Equal entries are not always repeated. Blank lines part the entries; values can stand above or below the substance they belong to.
What was measured:
Assay in all cases: cell-based or functional assay
[1] = target: human IL-17RA (human) (UniProt Q96F46)
[2] = target: human IL-25 (human) (UniProt Q9H293)
[3] = target: human IL-17RB (human) (UniProt Q9NRM6)
human IL-17RB (human), sequence (Q9NRM6 18-502): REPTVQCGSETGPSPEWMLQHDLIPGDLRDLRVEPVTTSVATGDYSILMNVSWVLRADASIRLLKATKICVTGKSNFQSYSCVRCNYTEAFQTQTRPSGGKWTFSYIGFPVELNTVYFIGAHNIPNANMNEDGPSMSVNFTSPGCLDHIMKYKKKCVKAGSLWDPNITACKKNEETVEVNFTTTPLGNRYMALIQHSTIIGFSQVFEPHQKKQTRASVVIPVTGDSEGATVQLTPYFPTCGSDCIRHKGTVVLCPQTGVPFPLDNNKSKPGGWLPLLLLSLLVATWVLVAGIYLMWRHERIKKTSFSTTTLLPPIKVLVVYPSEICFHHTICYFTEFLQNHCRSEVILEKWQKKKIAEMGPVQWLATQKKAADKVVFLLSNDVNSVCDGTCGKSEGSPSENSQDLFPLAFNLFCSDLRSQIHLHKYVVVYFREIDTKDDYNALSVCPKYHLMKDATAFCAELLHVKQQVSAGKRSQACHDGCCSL

human IL-25 (human), sequence (Q9H293 33-177 limits assumed): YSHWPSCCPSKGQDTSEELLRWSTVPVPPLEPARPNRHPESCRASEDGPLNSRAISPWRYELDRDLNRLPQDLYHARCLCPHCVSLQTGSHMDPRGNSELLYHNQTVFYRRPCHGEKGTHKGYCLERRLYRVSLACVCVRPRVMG

- % Inhibition of IL-5 production, TSLP treated human PBMC + IL-2 + IL-25; inhibitor 10 micrograms/mL [1]: 24% and 33%
Substance: MAB1771: anti-HuIL-17RA MuIgG2b (R&D Systems) (antibody)

- % Inhibition of IL-5 production, TSLP treated human PBMC + IL-2 + IL-25; inhibitor 10 micrograms/mL [2]: 67%
Substance: HuIL-17RB: HIS (extracellular region of human IL-17RB fused to poly HIS) (from UniProt Q9NRM6 18-292) (receptor)

- % Inhibition of IL-5 production, TSLP treated human PBMC + IL-2 + IL-25; inhibitor 10 micrograms/mL [3]: 13%
Substance: MAB1207: anti-HuIL-17RB MuIgG2b (R&D Systems) (antibody)

Reference: US20160208004A1
